For two molecules, Kd, koff and kon results are on record in paper PMC3516549 (PLoS Pathogens, 2012).

“And” between values parts separate entries of the source, which are not always exact repeats. Identical values can stand only once.

Assay [1] has as its target recombinant trimerized His-tagged soluble HA of A/South Carolina/1/18 (1918 wt) (Influenza A virus A/South …, UniProt Q9WFX3, strain). As to the kind of experiment: BLI; […]; 1:1 binding model, […]. The following applies: both partners purified. Background: BLI is a label-free optical method that tracks binding on a fibre tip over time.
The target in assay [2] is recombinant trimerized His-tagged soluble HA, A/South Carolina/1/18 (1918 wt) (Influenza A virus A/South …, UniProt Q9WFX3, strain). As to the kind of experiment: BLI. The following applies: both partners purified.

B1: 1I20 Fab (Fab, V domains shown)
VH: EVQLVESGGGVVQPGGSLRLSCIASAFNLGIFGMHWVRQAPGKGLEWVAFIRYDGGKTFYADSVKGRFTISRDNSKNTLYLQMNSLRTEDTALYYCARDATADYYGPGSYPNWLDPWGQGTLVTVSS
VL: DIRLTQSPATLSVSPGERATLSCRASHSVSRNLAWYQQKPGRAPRLLVYDTSSRATGIPARFSGSGSGTEFTLTISSLQSEDFAVYYCQQYNNWPRTFGQGTKVDIK
notes: also called mAb 1I20; source: HEK 293F, transiently co-transfected, purified (HiTrap Protein G)
For orientation: Kd means the free concentration of one partner at which half of the binding sites on the other are occupied at equilibrium, for simple one-to-one binding. As usually defined, the koff is the first-order rate constant of dissociation. As usually defined, the kon is the second-order rate constant of association. As for B1, in assay [1], the Kd is 3.22 nM and 3.46 nM; the koff was 0.000375 s⁻¹ and 0.000366 s⁻¹; the kon was 116000 M⁻¹ s⁻¹ and 106000 M⁻¹ s⁻¹.

B2: 1I20 Fab (Fab, V domains shown)
VH: EVQLVESGGGVVQPGGSLRLSCIASAFNLGIFGMHWVRQAPGKGLEWVAFIRYDGGKTFYADSVKGRFTISRDNSKNTLYLQMNSLRTEDTALYYCARDATADYYGPGSYPNWLDPWGQGTLVTVSS
VL: DIRLTQSPATLSVSPGERATLSCRASHSVSRNLAWYQQKPGRAPRLLVYDTSSRATGIPARFSGSGSGTEFTLTISSLQSEDFAVYYCQQYNNWPRTFGQGTKVDIK
notes: also called mAb 1I20
Consider B2, for which the Kd in assay [2] is 3.3 nM.
